# Experiments:
# [1] = target: V3 loop-deleted (Δ297-329) HIV-1IIIB env glycoprotein expressed by vv-7ΔV3 (HIV-1 IIIB isolate) (UniProt P04578); assay: cell-based or functional assay
# [2] = target: CD4 receptor on CD4+ cells (SupT-1 cells; IL-2-dependent CD4+ T lymphocytes) (UniProt P01730); assay: cell-based or functional assay
substance,measurement,setting,value
"F105, human mAb directed against a discontinuous gp120 epitope overlapping the CD4 binding site (antibody)","ADCC specific lysis (51Cr release, E:T 50:1)",[1],< 4%
V3 loop-deleted (Δ297-329) HIV-1IIIB env glycoprotein expressed by vv-7ΔV3 (from UniProt P04578 33-296; P04578 330-856),"activation-induced apoptosis of CD4+ T lymphocytes (fragmented DNA, PI, 72 hrs)",[2],< 7%
full-length (wild-type) HIV-1IIIB env glycoprotein expressed by vv-WTP-2 (from UniProt P04578 33-856),"apoptotic cells (sub-G1 DNA content, PI staining) in infected SupT-1 cells, 16 hr",[2],20%
same,syncytium formation in infected SupT-1 cells,[2],80 to 90%

# Source: patent US20020182180A1
